Assay results reported in the Human Domainome abundance scans (Beltran et al. 2025).
± gives the uncertainty stated by the source.

B1: Ras GTPase-activating protein 1, residues 281 to 341; numbered along this chain, P20936 (parent)
chain: RRRVRAILPYTKVPDTDEISFLKGDMFIVHNELEDGWMWVTNLRTDEQGLIVEDLVEEVGR

Variants of: B1
Assay: abundance fitness (aPCA) (normalised: wild type 0, dead -1); higher = more abundant; growth selection in yeast, the domain comes from the species named
Conditions: Homo sapiens
RRRVRAILPYTKVPDTPEISFLKGDMFIVHNELEDGWMWVTNLRTDEQGLIVEDLVEEVGR [D17P] showed an abundance fitness of -0.088 ± 0.037. With RRRVRAILPYTKVPDTMEISFLKGDMFIVHNELEDGWMWVTNLRTDEQGLIVEDLVEEVGR [D17M] the abundance fitness was -0.059 ± 0.044. RRRVRAILPYTKVPDTDEISFLKGDMFIVHNELEDGTMWVTNLRTDEQGLIVEDLVEEVGR [W37T] gave an abundance fitness of 0.037 ± 0.024. Variant RRRVRAILPYTKVPDTDEISFLKGDMFIVHNELEDGIMWVTNLRTDEQGLIVEDLVEEVGR [W37I] has an abundance fitness of -0.104 ± 0.022. With RRRVRAILPYTKVPDTDEISFLKGDMPIVHNELEDGWMWVTNLRTDEQGLIVEDLVEEVGR [F27P] the abundance fitness was -0.74 ± 0.081. RRRVRAILPYTKVPDTDEISFLKGDMFIVHNELEDGWMWVTNLRTDEQGLIVEDIVEEVGR [L55I] gave an abundance fitness of -0.241 ± 0.034. RRRVRAILPYTKVPDTDEISFLKGDMFIVHNELEDGWMWVTNLRTDEQGLIVEDPVEEVGR [L55P] showed an abundance fitness of -0.925 ± 0.086. RRRVRAILPYTKVQDTDEISFLKGDMFIVHNELEDGWMWVTNLRTDEQGLIVEDLVEEVGR [P14Q] showed an abundance fitness of -0.055 ± 0.074. With RRRVRAILPYTKVPDTDEISFLKGDMFIVHNELEDGWMWVCNLRTDEQGLIVEDLVEEVGR [T41C] the abundance fitness was -0.425 ± 0.028. RRRVRAILPYTKVPDTDEISFLKGDMFIVHNELEDGWMWVHNLRTDEQGLIVEDLVEEVGR [T41H] gave an abundance fitness of -0.078 ± 0.034. With RRRVRAILPYTKVPDTDEISFLKGDMFIVHNELEDGWMWVTNLRTIEQGLIVEDLVEEVGR [D46I] the abundance fitness was -0.085 ± 0.026. RRRVRAILPYTKVPDTDEISFLKGDMFIVHNELEDGWMWVTNLRTFEQGLIVEDLVEEVGR [D46F] gave an abundance fitness of -0.065 ± 0.024. Variant RRRVRAILPYTKVPDTDEISFLKGDMFIVHNELEDGWMWVTGLRTDEQGLIVEDLVEEVGR [N42G] has an abundance fitness of -0.802 ± 0.036. Variant RRRVRAILPYTKVPDTDEISFLKGDMFIVHNELEDGWMWVTILRTDEQGLIVEDLVEEVGR [N42I] has an abundance fitness of -0.893 ± 0.061. Variant RRRVRAILPYTKVPDTDEISFLKGDMFIVHVELEDGWMWVTNLRTDEQGLIVEDLVEEVGR [N31V] has an abundance fitness of -0.159 ± 0.028. For RRRVRAILYYTKVPDTDEISFLKGDMFIVHNELEDGWMWVTNLRTDEQGLIVEDLVEEVGR [P9Y], the abundance fitness was -0.796 ± 0.046. With RRRVRAILPYTKPPDTDEISFLKGDMFIVHNELEDGWMWVTNLRTDEQGLIVEDLVEEVGR [V13P] the abundance fitness was -0.34 ± 0.042. With RRRVRAILPYTKCPDTDEISFLKGDMFIVHNELEDGWMWVTNLRTDEQGLIVEDLVEEVGR [V13C] the abundance fitness was 0.015 ± 0.028. In the case of RRRVRAILPYTKVPDTDEISFLKGDMFIVHNELEDGWMIVTNLRTDEQGLIVEDLVEEVGR [W39I], the abundance fitness is reported as -0.284 ± 0.021. Variant RRRVRAILPYTKVPDTDEISFLKGDMFIVHNELEDGWMTVTNLRTDEQGLIVEDLVEEVGR [W39T] has an abundance fitness of -0.26 ± 0.023. Variant RRRVRMILPYTKVPDTDEISFLKGDMFIVHNELEDGWMWVTNLRTDEQGLIVEDLVEEVGR [A6M] has an abundance fitness of -0.804 ± 0.05. RRRVRTILPYTKVPDTDEISFLKGDMFIVHNELEDGWMWVTNLRTDEQGLIVEDLVEEVGR [A6T] showed an abundance fitness of -0.84 ± 0.034. For RRRVRPILPYTKVPDTDEISFLKGDMFIVHNELEDGWMWVTNLRTDEQGLIVEDLVEEVGR [A6P], the abundance fitness was -1.04 ± 0.05. RRRVRAILPYTKVPDTDEISFLKGDMFIVHNELEDGWGWVTNLRTDEQGLIVEDLVEEVGR [M38G] showed an abundance fitness of -0.78 ± 0.044. With RRRVRAILPYTKVPDTDEISFLKGHMFIVHNELEDGWMWVTNLRTDEQGLIVEDLVEEVGR [D25H] the abundance fitness was -0.895 ± 0.059. Variant RRRVRAILPYTKVPDTDEISFLKGAMFIVHNELEDGWMWVTNLRTDEQGLIVEDLVEEVGR [D25A] has an abundance fitness of -0.949 ± 0.066. Variant RRRVRAILPYTKVPDTDEISFLKGDMFIVHNELEDGWMWVTNLRTDEQGLIVEDLVEEVGE [R61E] has an abundance fitness of 0.234 ± 0.16. With RRRVRAILPYTKVPDTDEISFLIGDMFIVHNELEDGWMWVTNLRTDEQGLIVEDLVEEVGR [K23I] the abundance fitness was -0.148 ± 0.021. Work on RTRVRAILPYTKVPDTDEISFLKGDMFIVHNELEDGWMWVTNLRTDEQGLIVEDLVEEVGR [R2T] yielded an abundance fitness of -0.128 ± 0.032. Variant RRRVRAILPYTKVPDTDEISFLKGDMFIVHNELEDGWMWVTNLRTDEQGLIIEDLVEEVGR [V52I] has an abundance fitness of 0.022 ± 0.027. Work on RRRVRAILPYTKVPDTDEISFLKGDMFIVHNELEKGWMWVTNLRTDEQGLIVEDLVEEVGR [D35K] yielded an abundance fitness of -0.036 ± 0.062. FRRVRAILPYTKVPDTDEISFLKGDMFIVHNELEDGWMWVTNLRTDEQGLIVEDLVEEVGR [R1F] showed an abundance fitness of 0.06 ± 0.058. NRRVRAILPYTKVPDTDEISFLKGDMFIVHNELEDGWMWVTNLRTDEQGLIVEDLVEEVGR [R1N] gave an abundance fitness of 0.063 ± 0.037. Variant KRRVRAILPYTKVPDTDEISFLKGDMFIVHNELEDGWMWVTNLRTDEQGLIVEDLVEEVGR [R1K] has an abundance fitness of 0.058 ± 0.11. For MRRVRAILPYTKVPDTDEISFLKGDMFIVHNELEDGWMWVTNLRTDEQGLIVEDLVEEVGR [R1M], the abundance fitness was 0.087 ± 0.074. In the case of RRRVRAILPYTFVPDTDEISFLKGDMFIVHNELEDGWMWVTNLRTDEQGLIVEDLVEEVGR [K12F], the abundance fitness is reported as -0.985 ± 0.052. In the case of RRRVRAILPYTQVPDTDEISFLKGDMFIVHNELEDGWMWVTNLRTDEQGLIVEDLVEEVGR [K12Q], the abundance fitness is reported as -0.202 ± 0.096. Variant RRRVTAILPYTKVPDTDEISFLKGDMFIVHNELEDGWMWVTNLRTDEQGLIVEDLVEEVGR [R5T] has an abundance fitness of -0.21 ± 0.033. With RRRVGAILPYTKVPDTDEISFLKGDMFIVHNELEDGWMWVTNLRTDEQGLIVEDLVEEVGR [R5G] the abundance fitness was -0.796 ± 0.045. Work on RRRVRAILPYTKVPDTDEISFLKGDMFYVHNELEDGWMWVTNLRTDEQGLIVEDLVEEVGR [I28Y] yielded an abundance fitness of -0.079 ± 0.022. With RRRVRAILPYTKVPDTDEISFLKGDMFGVHNELEDGWMWVTNLRTDEQGLIVEDLVEEVGR [I28G] the abundance fitness was -0.604 ± 0.022. For RRRVRAILPYTKVPDTDEISFLKGDMFAVHNELEDGWMWVTNLRTDEQGLIVEDLVEEVGR [I28A], the abundance fitness was -0.068 ± 0.022. RRRVRAILPYTKVPDTDEISFLKGDMFIVHNELEDQWMWVTNLRTDEQGLIVEDLVEEVGR [G36Q] gave an abundance fitness of -0.557 ± 0.09.
